From ChEMBL document CHEMBL1122728, “Derivatives of 2-methyl-1,4-naphthoquinone as substrates and inhibitors of the vitamin K dependent carboxylase” (J Med Chem, 1984)
Values joined by “and” are separate entries in the source; they are usually repeats but may differ in a detail not shown here. Equal entries are not always repeated.

Experiments:
[1] = compound: COC(=O)[C@H](CC(C)C)NC(=O)[C@H](CCC(=O)O)NC(=O)[C@H](CCC(=O)O)NC(=O)CCCC1=CC(=O)c2ccccc2C1=O; test: (§1) In vitro inhibitory effect Vitamin K dependent carboxylase of Phe-Leu-Glu-Glu-Leu in rat microsomal protein; assay type: microsomes; settings: Microsome
[2] = compound: COC(=O)[C@H](CC(C)C)NC(=O)[C@H](CCC(=O)O)NC(=O)[C@H](CCC(=O)O)NC(=O)CCCC1=C(C)C(=O)c2ccccc2C1=O; test: as §1; assay type: microsomes; settings: Microsome

B1: Vitamin K-dependent gamma-carboxylase (Rattus norvegicus), O88496 (protein)
chain: MAVHRGSARAAPASDKVQKNKPAQTSGLEQGSRMARIFGFEWADLSSWQSVVTLLNRPTDPANLAVFRFLFAFLMLLDIPQERGLSSLDRKYLDGLDVCRFPLLDALRPLPLDWMYLVYTIMFLGALGMMLGLWYRLSCMLFLLPYWYVFLLDKTSWNNHSYLYGLLAFQLTFMDANHYWSVDGLLSAQKKNAHVPLWNYTVLRGQIFIVYFIAGVKKLDADWVEGYSMEHLSRHWLFSPFKLVLSEELTSLLVVHWCGLLLDLSAGFLLFFDASRPIGLVFVSYFHCMNSQLFSIGMFPYVMLASSPLFCSAEWPRKLVARCPKRLQELLPAKAAPRPSASCVYKRARAKAGQKPGLRHHLGTVFTLLYLLEQLFLPYSHFLTQGYNNWTNGLYGYSWDMMVHSRSHQHVKITYRDGLTGELGYLNPGVFTQSRRWKDHADMLKQYATCLSLLLPKYNVTEPQIYFDIWVSINDRFQQRLFDPRVDIVQAVWSPFRRTPWVQPLLMDLSPWRTKLQDIKSSLDNHTEVVFIADFPGLHLENFVSEDLGNTSIQLLQGEVTVELVAEQKNQTLREGEKMQLPAGEYHKVYTVSSSPSCYMYIYVNTTEVALEQDLAYLQELKEKVENGSETGPLPPELQPLLEGEVKGGPEPTPLVQTFLRRQRKLQEIERRRNSPLHERFLRFVLRKLYVFRRSFLMTRISLRNLLFGRPSLEQLAQEVTYANLRPFEPVDESSASNTDSSDPHPSEPDSEHVHSEL
Km [1]: 85 µM
Km [2]: 44 µM and < 50 µM
